Test results published in US20120316071A1 (published 2012).
Each block holds one binder with its values, some of them ahead of it.

Assays:
[1] = molecular target: T1, rHuman ErbB2/Fc Chimera, CF (R&D Systems Cat#1129-ER) (human, UniProt P04626 23-652); assay: MSD multispot ECL, antigen spotted on plate, Fab 44.1 nM; blank spot 200
T1 construct: Bought from R&D Systems; also called human epidermal growth factor 2 receptor (ErbB2); not shown: Fc of the bought chimera

[2] = molecular target: T2, rHuman CD44/Fc Chimera, CF (R&D Systems Cat#3660-CD) (human, UniProt P16070 21-220); assay: as above
T2 construct: Bought from R&D Systems; not shown: Fc of the bought chimera

[3] = molecular target: T3, rHuman Erythropoietin R/Fc Chimera, CF (R&D Systems Cat#963-ER) (human, UniProt P19235 25-250); assay: as above
T3 construct: Bought from R&D Systems; also called EPO R/Fc; Epo R/Fc chimera; not shown: Fc of the bought chimera
T3 sequence (looked up): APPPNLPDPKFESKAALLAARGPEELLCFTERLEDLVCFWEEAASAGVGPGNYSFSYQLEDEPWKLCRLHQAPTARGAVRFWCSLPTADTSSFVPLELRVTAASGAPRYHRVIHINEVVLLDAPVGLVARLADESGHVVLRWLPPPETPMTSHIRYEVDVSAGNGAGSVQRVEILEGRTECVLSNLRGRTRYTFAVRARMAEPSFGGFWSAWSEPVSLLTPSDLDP

[4] = molecular target: T4, rHuman Notch-1/Fc Chimera, CF (R&D Systems Cat#3647-TK) (human, UniProt P46531 19-526); assay: as above
T4 construct: Bought from R&D Systems; not shown: Fc of the bought chimera

[5] = molecular target: T5, Recombinant Human DLL4 (R&D Systems Cat#1506-D4/CF) (human, UniProt Q9NR61 27-524); assay: as above
T5 construct: Bought from R&D Systems; also called rHuman DLL4; delta-like protein 4

[6] = molecular target: T6, rHuman CD44/Fc Chimera, CF (R&D Systems Cat#3660-CD) (human, UniProt P16070 21-220); assay: MSD Multispot ECL, antigen spotted on plate, Fab at 60 nM; blank spot 237
T6 construct: Bought Fc chimera; Fc part of the bought chimera not given

[7] = molecular target: T7, rHuman Erythropoietin R/Fc Chimera, CF (R&D Systems Cat#963-ER) (human, UniProt P19235 25-250); assay: as above
T7 construct: Bought Fc chimera; also called EPO R/Fc; Epo R; Fc part of the bought chimera not given
T7 sequence (looked up): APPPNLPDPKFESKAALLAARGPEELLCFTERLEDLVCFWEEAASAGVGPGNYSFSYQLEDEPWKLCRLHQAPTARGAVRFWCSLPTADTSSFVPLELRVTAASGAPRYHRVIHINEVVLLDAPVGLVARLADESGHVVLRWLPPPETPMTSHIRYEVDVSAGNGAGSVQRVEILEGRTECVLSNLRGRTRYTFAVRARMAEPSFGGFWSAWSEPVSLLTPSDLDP

[8] = molecular target: T8, rHuman Notch-1/Fc Chimera, CF (R&D Systems Cat#3647-TK) (human, UniProt P46531 19-526); assay: as above
T8 construct: Bought Fc chimera; Fc part of the bought chimera not given

[9] = molecular target: T9, rHuman P-Cadherin/Fc Chimera, CF (R&D Systems Cat#861-PC) (human, UniProt P22223 108-654); assay: as above
T9 construct: Bought Fc chimera; Fc part of the bought chimera not given

[10] = molecular target: T10, Recombinant Human DLL4 (R&D Systems Cat#1506-D4/CF) (human, UniProt Q9NR61 27-524); assay: as above
T10 construct: Bought recombinant protein; also called rHuman DLL4; delta-like protein 4

[11] = molecular target: T11, rHuman Erythropoietin R/Fc Chimera, CF (R&D Systems Cat#963-ER) (human, UniProt P19235 25-250); assay: MSD multispot ECL, antigen spotted, Fab 37.2 nM; blank spot 199
T11 construct: Bought reagent; also called EPO R/Fc; Epo R
T11 sequence (looked up): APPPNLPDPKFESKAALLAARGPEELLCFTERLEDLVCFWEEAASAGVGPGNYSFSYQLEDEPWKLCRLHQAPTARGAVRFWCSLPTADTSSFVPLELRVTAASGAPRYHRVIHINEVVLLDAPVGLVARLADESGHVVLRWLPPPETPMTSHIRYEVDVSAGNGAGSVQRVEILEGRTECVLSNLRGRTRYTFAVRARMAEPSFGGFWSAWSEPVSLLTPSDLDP

[12] = molecular target: T12, rHuman Notch-1/Fc Chimera, CF (R&D Systems Cat#3647-TK) (human, UniProt P46531 19-526); assay: as above
T12 construct: Bought reagent

[13] = molecular target: T13, rHuman CD44/Fc Chimera, CF (R&D Systems Cat#3660-CD) (human, UniProt P16070 21-220); assay: as above
T13 construct: Bought reagent

[14] = molecular target: T14, Recombinant Human DLL4 (R&D Systems Cat#1506-D4/CF) (human, UniProt Q9NR61 27-524); assay: as above
T14 construct: Bought recombinant protein; also called rHuman DLL4; delta-like protein 4

[15] = molecular target: T15, rHuman HGF R/c-MET/Fc Chimera, CF (R&D Systems Cat#358-MT/CF) (human, UniProt P08581 25-932); assay: as above
T15 construct: Bought reagent; also called HGF R/Fc; hepatocyte growth factor receptor
T15 sequence (P08581 25-932, change not shown): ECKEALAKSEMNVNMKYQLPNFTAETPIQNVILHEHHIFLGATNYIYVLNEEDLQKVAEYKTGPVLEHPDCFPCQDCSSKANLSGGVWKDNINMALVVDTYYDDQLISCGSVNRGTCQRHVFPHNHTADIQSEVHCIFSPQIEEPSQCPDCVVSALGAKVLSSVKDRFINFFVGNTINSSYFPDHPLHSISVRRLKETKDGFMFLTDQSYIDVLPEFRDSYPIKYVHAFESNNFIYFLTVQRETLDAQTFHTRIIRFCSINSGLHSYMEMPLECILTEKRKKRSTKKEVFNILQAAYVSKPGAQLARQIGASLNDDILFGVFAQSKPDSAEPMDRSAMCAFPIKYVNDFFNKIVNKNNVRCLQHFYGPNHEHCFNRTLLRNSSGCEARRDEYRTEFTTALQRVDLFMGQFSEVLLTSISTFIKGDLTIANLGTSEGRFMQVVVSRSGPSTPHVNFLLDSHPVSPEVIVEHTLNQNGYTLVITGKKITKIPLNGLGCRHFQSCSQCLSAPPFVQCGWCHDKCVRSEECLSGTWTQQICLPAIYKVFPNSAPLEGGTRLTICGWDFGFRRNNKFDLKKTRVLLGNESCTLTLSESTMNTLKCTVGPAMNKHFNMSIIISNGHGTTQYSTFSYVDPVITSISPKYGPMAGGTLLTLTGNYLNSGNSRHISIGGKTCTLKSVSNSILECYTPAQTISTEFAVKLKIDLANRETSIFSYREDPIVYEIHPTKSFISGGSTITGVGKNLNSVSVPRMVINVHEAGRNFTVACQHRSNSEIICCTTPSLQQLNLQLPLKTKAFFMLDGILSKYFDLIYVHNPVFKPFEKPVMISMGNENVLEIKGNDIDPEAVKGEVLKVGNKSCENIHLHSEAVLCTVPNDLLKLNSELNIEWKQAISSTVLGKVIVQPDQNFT

[16] = molecular target: T16, rHuman IGF-1 sR, (IGF-1 sR), CF (R&D Systems Cat#391-GR) (human, UniProt P08069 31-932); assay: as above
T16 construct: Bought soluble receptor; also called insulin-like growth factor-1 soluble receptor

[17] = molecular target: T17, rHuman ErbB2/Fc Chimera, CF (R&D Systems Cat#1129-ER) (human, UniProt P04626 23-652); assay: as above
T17 construct: Bought reagent; also called human epidermal growth factor 2 receptor

[18] = molecular target: T18, rHuman EGF R/Fc Chimera, CF (R&D Systems Cat#344-ER) (human, UniProt P00533 25-645); assay: as above
T18 construct: Bought reagent; also called epidermal growth factor receptor

[19] = molecular target: T13, rHuman CD44/Fc Chimera, CF (R&D Systems …); assay: MSD multispot ECL, antigen spotted, Fab 0.6 nM; blank spot 226
[20] = molecular target: T17, rHuman ErbB2/Fc Chimera, CF (R&D …); assay: as above

- ECL signal [1]: 347
- ECL signal [2]: 302
- ECL signal [3]: 2390
- ECL signal [4]: 331
- ECL signal [5]: 388
B1: Fab VH1-46_IGHD3-10*01_IGHJ4*01 & B3_IGKJ1*01 (Fab, V domains shown)
VH: QVQLVQSGAEVKKPGASVKVSCKASGYTFTSYYMHWVRQAPGQGLEWMGIINPSGGSTSYAQKFQGRVTMTRDTSTSTVYMELSSLRSEDTAVYYCAREYYYGSGSYYNDYFDYWGQGTLVTVSS
VL: not shown
notes: Tested as a Fab made in E. coli; VH was cloned into Plasmid A (CH1 constant region, His6 and Flag tags); The kappa VL was cloned into Plasmid C (kappa CL)

- ECL signal [6]: 434
- ECL signal [7]: 423
- ECL signal [8]: 415
- ECL signal [9]: 372
- ECL signal [10]: 875
B2: Fab VH6-1_IGHD3-3*01_IGHJ4*01 & V4-3_IGLJ4*01 (Fab, V domains shown)
VH: QVQLQQSGPGLVKPSQTLSLTCAISGDSVSSNSAAWNWIRQSPSRGLEWLGRTYYRSKWYNDYAVSVKSRITINPDTSKNQFSLQLNSVTPEDTAVYYCAREYYDFWSGYYTDYFDYWGQGTLVTVSS
VL: QPVLTQPTSLSASPGASARLTCTLRSGINLGSYRIFWYQQKPESPPRYLLSYYSDSSKHQGSGVPSRFSGSKDASSNAGILVISGLQSEDEADYYCMIWHSSASFVFGGGTQLIIL
notes: Tested as a purified germline Fab made in E. coli; The VH was cloned into plasmid A (CH1 constant region, His6 and Flag tags) and the lambda VL into plasmid E (lambda CL)

- ECL signal [11]: 315 ECL signal
- ECL signal [12]: 402 ECL signal
- ECL signal [13]: 356 ECL signal
- ECL signal [14]: 16700 ECL signal
- ECL signal [15]: 207 ECL signal
- ECL signal [16]: 295 ECL signal
- ECL signal [17]: 384 ECL signal
- ECL signal [18]: 228 ECL signal
- ECL signal [19]: 238 ECL signal
- ECL signal [20]: 215 ECL signal
B3: Fab VH1-46_IGHD6-6*01_IGHJ1*01 & L6_IGKJ1*01 (Fab, V domains shown)
VH: QVQLVQSGAEVKKPGASVKVSCKASGYTFTSYYMHWVRQAPGQGLEWMGIINPSGGSTSYAQKFQGRVTMTRDTSTSTVYMELSSLRSEDTAVYYCAREEYSSSSAEYFQHWGQGTLVTVSS
VL: not shown
notes: Only variable domains are tied to the molecule; Tested as a Fab made in E. coli: heavy chain from Plasmid A (CH1 constant region, His6 and Flag tags), kappa light chain from Plasmid C (kappa CL); also called parent Hit Fab against DLL4; VH1-46_IGHD6-6*01_IGHJ1*01 & L6_IGKJ1*01 (parental)
